Measured values as given in patent US20230235004A1 (published 2023).

T1: human MAdCAM expressed on cells (human, UniProt Q13477 19-382)
T1 construct: whole, on cells
T1 sequence (looked up): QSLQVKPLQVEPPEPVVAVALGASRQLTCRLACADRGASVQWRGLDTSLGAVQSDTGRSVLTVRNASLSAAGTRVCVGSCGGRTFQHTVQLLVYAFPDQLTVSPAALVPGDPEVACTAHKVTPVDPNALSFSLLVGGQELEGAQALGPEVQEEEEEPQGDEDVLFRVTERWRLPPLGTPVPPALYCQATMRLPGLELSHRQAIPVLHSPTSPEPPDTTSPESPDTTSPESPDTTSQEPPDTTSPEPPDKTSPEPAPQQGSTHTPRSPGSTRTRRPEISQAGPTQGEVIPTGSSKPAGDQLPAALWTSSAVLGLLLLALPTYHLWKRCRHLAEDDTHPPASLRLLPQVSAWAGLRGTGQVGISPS

T2: mouse MAdCAM expressed on cells (mouse, UniProt Q61826 22-405)
T2 construct: whole, on cells
T2 sequence (looked up): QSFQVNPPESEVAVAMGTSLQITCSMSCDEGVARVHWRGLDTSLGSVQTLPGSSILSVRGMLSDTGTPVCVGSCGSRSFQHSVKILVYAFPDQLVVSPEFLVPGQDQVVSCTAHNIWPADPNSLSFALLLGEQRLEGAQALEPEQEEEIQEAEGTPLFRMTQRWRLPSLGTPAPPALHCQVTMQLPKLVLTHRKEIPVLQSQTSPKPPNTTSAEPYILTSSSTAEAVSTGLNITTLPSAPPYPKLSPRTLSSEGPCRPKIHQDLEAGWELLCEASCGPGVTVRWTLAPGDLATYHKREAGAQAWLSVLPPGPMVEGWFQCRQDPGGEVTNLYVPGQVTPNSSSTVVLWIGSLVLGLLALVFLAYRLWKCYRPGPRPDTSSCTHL

T3: recombinant mouse MAdCAM-1 (mouse, UniProt Q61826 22-364, limits assumed)
T3 construct: also called mMAdCAM-1
T3 sequence (looked up): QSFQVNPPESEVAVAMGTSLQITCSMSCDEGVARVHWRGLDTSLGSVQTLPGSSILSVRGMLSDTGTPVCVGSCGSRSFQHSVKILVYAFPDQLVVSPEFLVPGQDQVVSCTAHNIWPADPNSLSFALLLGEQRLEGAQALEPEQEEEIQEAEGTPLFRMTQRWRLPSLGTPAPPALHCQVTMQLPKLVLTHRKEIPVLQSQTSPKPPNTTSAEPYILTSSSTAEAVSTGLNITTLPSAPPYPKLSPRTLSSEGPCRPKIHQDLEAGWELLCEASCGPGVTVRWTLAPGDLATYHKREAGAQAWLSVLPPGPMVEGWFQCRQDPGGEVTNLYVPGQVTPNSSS

T4: human MAdCAM protein (human, UniProt Q13477 19-317, limits assumed)
T4 construct: also called soluble monomeric human MAdCAM; recombinant human MAdCAM
T4 sequence (looked up): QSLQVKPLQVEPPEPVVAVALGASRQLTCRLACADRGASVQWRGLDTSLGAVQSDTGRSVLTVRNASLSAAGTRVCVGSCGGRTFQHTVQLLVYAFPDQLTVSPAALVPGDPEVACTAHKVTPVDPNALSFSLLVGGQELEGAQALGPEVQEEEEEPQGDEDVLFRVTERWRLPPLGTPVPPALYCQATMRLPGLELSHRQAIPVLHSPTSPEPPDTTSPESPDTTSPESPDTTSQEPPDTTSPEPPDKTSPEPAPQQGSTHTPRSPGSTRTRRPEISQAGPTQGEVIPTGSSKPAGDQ


How the values were obtained:
[1] = target: T1, human MAdCAM expressed on cells; assay: cell binding
[2] = target: T2, mouse MAdCAM expressed on cells; assay: cell binding
[3] = target: T3, recombinant mouse MAdCAM-1; assay: Octet
human MAdCAM protein = target: T4, human MAdCAM protein; assay: Octet

binding result [1]	binding result [2]	binding result [3]	binding result (human MAdCAM protein)	Binder
binds	binds	binds	binds	MAdCAM antibody Table 1 clone 5 (scFv) scFv: EVQLLESGGGLVQPGGSLRLSCAASGFTFSSYWMHWVRQAPGKGLEWVSSISPGGSNIDYADSVKGRFTISRDNSKNTLYLQMNSLRAEDTAVYYCAREVQLSHYDYWGQGTLVTVSSGGGGSGGGGSGGGGSGGGGSDIQMTQSPSSLSASVGDRVTITCRASQGISNSLAWYQQKPGKAPKLLIYGASSLQSGVPSRFSGSGSGTDFTLTISSLQPEDFATYYCQQANSFPFTFGQGTKVEIK
binds	no binding	no binding	binds	MAdCAM antibody Table 1 clone 6 (scFv) scFv: EVQLLESGGGLVQPGGSLRLSCAASGFTFNNYAFHWVRQAPGKGLEWVSRINSYGTSTTYADSVKGRFTISRDNSKNTLYLQMNSLRAEDTAVYYCAREGPVAGYWYFDLWGQGTLVTVSSGGGGSGGGGSGGGGSGGGGSDIQMTQSPSSLSASVGDRVTITCRASQIIGTNLAWYQQKPGKAPKLLIYGASSLQSGVPSRFSGSGSGTDFTLTISSLQPEDFATYYCQQSYRLPFTFGQGTKVEIK
